Read-outs that look alike come from different tables or passages of the source.

Data set [1] concerns the target FUS(1-526)[P525L][R/S in 375-422 and 454-526]-NLUC-FLAG P525L; all Arg to Ser in 375-422 and 454-526 (UniProt P35637). The note with it: nanoBRET. A general note: Bioluminescence resonance energy transfer reports proximity on the nanometre scale.
Data set [2] addresses HA-NES-β23-NLUC-FUS(375-526)[P525L][R/S in 375-422 and 454-526] P525L; all Arg to Ser in 375-422 and 454-526 (UniProt P35637). The following applies: full PS, nanoBRET.
Data set [3] deals with HA-NES-β23-NLUC (artificial). The note with it: full PS, nanoBRET, control fusion.
For data set [4], the target named is NanoLuc luciferase control (NLUC-HA) (UniProt Q9GV45). The following applies: full PS, nanoBRET, control protein.
Data set [5] addresses FUS(375-526)[P525L][R/S in 454-526]-NLUC-HA P525L; all Arg to Ser in 454-526 (UniProt P35637). The note with it: full PS, nanoBRET.
Data set [6] concerns the target FUS(375-526)[P525L][R/S in 375-422]-NLUC-HA P525L; all Arg to Ser in 375-422 (UniProt P35637). The following applies: full PS, nanoBRET.
Setting [7] is: 2'-MOE at 1-5 and 16-20, DNA at 6-15, all C 5mC.
Setting [8] is: cEt at 1-5 and 16-20, DNA at 6-15, all C 5mC.
The mark [9] stands for this setting: 2'-F at 1-5 and 16-20, DNA at 6-15, 5mC at C8, C9, C11.

With “CTGCTAGCCTCTGGATTTGA [766633 (2'-MOE 5-10-5 gapmer)]”, the Kd – broadly, the constant that tells how readily two partners part at equilibrium – was 0.0016 µM in data set [1] (2'-MOE at 1-5 and 16-20, DNA at 6-15, full PS, all C 5mC); above 1 µM in data set [2] (setting [7]); above 1 µM in data set [3] (setting [7]); above 1 µM in data set [4] (2'-MOE at 1-5 and 16-20, DNA at 6-15, all C 5mC, 100 mM KOAc, 20 mM Tris pH 8.0, 1 mM EDTA, 0.01% NP-40, RT); 0.282 µM in data set [5] (setting [7]); 0.0124 µM in data set [6] (setting [7]).
For “CTGCTAGCCTCTGGATTTGA [766635 (cEt 5-10-5 gapmer)]”, the dissociation constant Kd in data set [1] (cEt at 1-5 and 16-20, DNA at 6-15, full PS, all C 5mC) is 0.0037 µM; in data set [2] (setting [8]) it was above 1 µM; in data set [3] (setting [8]), 0.95 µM; in data set [4] (setting [8]), above 1 µM; in data set [5] (setting [8]), 0.29 µM; in data set [6] (setting [8]), 0.0143 µM.
As to “CUGCUAGCCTCTGGAUUUGA [766637 (2'-F 5-10-5 gapmer)]”, the Kd in data set [1] (2'-F at 1-5 and 16-20, DNA at 6-15, full PS, 5mC at C8, C9, C11) was 0.0003 µM; in data set [2] (setting [9]), 0.2 µM; in data set [3] (setting [9]), 0.345 µM; in data set [4] (setting [9]), above 1 µM; in data set [5] (setting [9]) it was 0.0384 µM; in data set [6] (setting [9]) it was 0.0018 µM.
For the sequence “CUGCUAGCCUCUGGAUUUGA [JB39 (RNA, phosphodiester)]”, in data set [1], the dissociation constant (Kd) is 0.248 µM.

Source of the values: patent US20200239888.
